Reference: US20180155451A1 (published 2018)

T1: FcγRIIa H (human, UniProt P12318 34-217)
T1 construct: extracellular domain; also called FcgRIIa H type; 2aH
T1 sequence (looked up): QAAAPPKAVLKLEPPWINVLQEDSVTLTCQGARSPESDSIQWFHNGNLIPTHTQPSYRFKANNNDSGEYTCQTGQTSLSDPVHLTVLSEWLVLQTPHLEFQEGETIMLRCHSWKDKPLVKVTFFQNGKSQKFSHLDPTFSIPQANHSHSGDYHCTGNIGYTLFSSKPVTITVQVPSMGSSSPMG

T2: FcγRIIb (human, UniProt P31994 43-217)
T2 construct: extracellular domain; also called FcgRIIb; 2b
T2 sequence (looked up): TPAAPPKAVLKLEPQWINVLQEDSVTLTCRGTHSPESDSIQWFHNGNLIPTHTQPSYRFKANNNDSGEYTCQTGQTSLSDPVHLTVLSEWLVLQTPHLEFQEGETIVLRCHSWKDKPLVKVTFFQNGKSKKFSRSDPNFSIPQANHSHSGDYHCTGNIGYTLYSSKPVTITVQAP


Assays:
[1] = molecular target: T1, FcγRIIa H; test: ratio of He/Con_2aH to He/Con_2b (relative SPR binding to FcγRIIa H over that of the same antibody to FcγRIIb)
[2] = molecular target: T2, FcγRIIb; test: SPR (Biacore), antibody captured on antigen-peptide chip, FcγR as analyte; binding relative to GpH7-A5/GpH7-B3/GpL16-k0 = 100
[3] = molecular target: T1, FcγRIIa H; test: as above

| Binder | He_2aH/2b (IIaH/IIb) [1] | He/Con_2b [2] | He/Con_2aH [3] |
| --- | --- | --- | --- |
| GpH7-A5/GpH7-B3 variant D265_04F/GpL16-k0 (antibody, human IgG1, kappa, Heterodimerized anti-glypican-3 IgG1; substitution in only one H chain (the GpH7-B3 chain); also called He Ab) heavy 1: not shown heavy 2: not shown light: DIVMTQSPLSLPVTPGEPASISCQASESLVHSNRNTYLHWYLQKPGQSPQLLIYKVSNRFSGVPDRFSGSGSGTDFTLKISRVEAEDVGVYYCSQNTHVPPTFGQGTKVEIERTVAAPSVFIFPPSDEQLKSGTASVVCLLNNFYPREAKVQWKVDNALQSGNSQESVTEQDSKDSTYSLSSTLTLSKADYEKHKVYACEVTHQGLSSPVTKSFNRGEC | 1.28 | 3.2 % of HeCon Ab | 4.1 % of HeCon Ab |
| GpH7-A5/GpH7-B3 variant D265_14T/GpL16-k0 (antibody, human IgG1, kappa, Heterodimerized anti-glypican-3 IgG1; substitution in only one H chain (the GpH7-B3 chain); also called He Ab) heavy 1: not shown heavy 2: not shown light: DIVMTQSPLSLPVTPGEPASISCQASESLVHSNRNTYLHWYLQKPGQSPQLLIYKVSNRFSGVPDRFSGSGSGTDFTLKISRVEAEDVGVYYCSQNTHVPPTFGQGTKVEIERTVAAPSVFIFPPSDEQLKSGTASVVCLLNNFYPREAKVQWKVDNALQSGNSQESVTEQDSKDSTYSLSSTLTLSKADYEKHKVYACEVTHQGLSSPVTKSFNRGEC | 1.5 | 16 % of HeCon Ab | 24.1 % of HeCon Ab |
| GpH7-A5/GpH7-B3 variant D265_06M/GpL16-k0 (antibody, human IgG1, kappa, Heterodimerized anti-glypican-3 IgG1; substitution in only one H chain (the GpH7-B3 chain); also called He Ab) heavy 1: not shown heavy 2: not shown light: DIVMTQSPLSLPVTPGEPASISCQASESLVHSNRNTYLHWYLQKPGQSPQLLIYKVSNRFSGVPDRFSGSGSGTDFTLKISRVEAEDVGVYYCSQNTHVPPTFGQGTKVEIERTVAAPSVFIFPPSDEQLKSGTASVVCLLNNFYPREAKVQWKVDNALQSGNSQESVTEQDSKDSTYSLSSTLTLSKADYEKHKVYACEVTHQGLSSPVTKSFNRGEC | 1.35 | 10 % of HeCon Ab | 13.5 % of HeCon Ab |

The remaining lines, values ahead:

| He_2aH/2b (IIaH/IIb) [1] | He/Con_2b [2] | He/Con_2aH [3] | Binder |
| --- | --- | --- | --- |
| 1.43 | 33.4 % of HeCon Ab | 47.7 % of HeCon Ab | GpH7-A5/GpH7-B3 variant D265_19Q/GpL16-k0 (antibody, human IgG1, kappa, Heterodimerized anti-glypican-3 IgG1; substitution in only one H chain (the GpH7-B3 chain); also called He Ab) heavy 1: not shown heavy 2: not shown light: DIVMTQSPLSLPVTPGEPASISCQASESLVHSNRNTYLHWYLQKPGQSPQLLIYKVSNRFSGVPDRFSGSGSGTDFTLKISRVEAEDVGVYYCSQNTHVPPTFGQGTKVEIERTVAAPSVFIFPPSDEQLKSGTASVVCLLNNFYPREAKVQWKVDNALQSGNSQESVTEQDSKDSTYSLSSTLTLSKADYEKHKVYACEVTHQGLSSPVTKSFNRGEC |
| 1.24 | 89.6 % of HeCon Ab | 111 % of HeCon Ab | GpH7-A5/GpH7-B3 variant H268_04F/GpL16-k0 (antibody, human IgG1, kappa, Heterodimerized anti-glypican-3 IgG1; substitution in only one H chain (the GpH7-B3 chain); also called He Ab) heavy 1: not shown heavy 2: not shown light: DIVMTQSPLSLPVTPGEPASISCQASESLVHSNRNTYLHWYLQKPGQSPQLLIYKVSNRFSGVPDRFSGSGSGTDFTLKISRVEAEDVGVYYCSQNTHVPPTFGQGTKVEIERTVAAPSVFIFPPSDEQLKSGTASVVCLLNNFYPREAKVQWKVDNALQSGNSQESVTEQDSKDSTYSLSSTLTLSKADYEKHKVYACEVTHQGLSSPVTKSFNRGEC |
| 1.39 | 51.5 % of HeCon Ab | 71.5 % of HeCon Ab | GpH7-A5/GpH7-B3 variant E269_01G/GpL16-k0 (antibody, human IgG1, kappa, Heterodimerized anti-glypican-3 IgG1; substitution in only one H chain (the GpH7-B3 chain); also called He Ab) heavy 1: not shown heavy 2: not shown light: DIVMTQSPLSLPVTPGEPASISCQASESLVHSNRNTYLHWYLQKPGQSPQLLIYKVSNRFSGVPDRFSGSGSGTDFTLKISRVEAEDVGVYYCSQNTHVPPTFGQGTKVEIERTVAAPSVFIFPPSDEQLKSGTASVVCLLNNFYPREAKVQWKVDNALQSGNSQESVTEQDSKDSTYSLSSTLTLSKADYEKHKVYACEVTHQGLSSPVTKSFNRGEC |
| 2.86 | 1.1 % of HeCon Ab | 3.2 % of HeCon Ab | GpH7-A5/GpH7-B3 variant D265_20W/GpL16-k0 (antibody, human IgG1, kappa, Heterodimerized anti-glypican-3 IgG1; substitution in only one H chain (the GpH7-B3 chain); also called He Ab) heavy 1: not shown heavy 2: not shown light: DIVMTQSPLSLPVTPGEPASISCQASESLVHSNRNTYLHWYLQKPGQSPQLLIYKVSNRFSGVPDRFSGSGSGTDFTLKISRVEAEDVGVYYCSQNTHVPPTFGQGTKVEIERTVAAPSVFIFPPSDEQLKSGTASVVCLLNNFYPREAKVQWKVDNALQSGNSQESVTEQDSKDSTYSLSSTLTLSKADYEKHKVYACEVTHQGLSSPVTKSFNRGEC |
| 1.27 | 38.3 % of HeCon Ab | 48.6 % of HeCon Ab | GpH7-A5/GpH7-B3 variant D265_16H/GpL16-k0 (antibody, human IgG1, kappa, Heterodimerized anti-glypican-3 IgG1; substitution in only one H chain (the GpH7-B3 chain); also called He Ab) heavy 1: not shown heavy 2: not shown light: DIVMTQSPLSLPVTPGEPASISCQASESLVHSNRNTYLHWYLQKPGQSPQLLIYKVSNRFSGVPDRFSGSGSGTDFTLKISRVEAEDVGVYYCSQNTHVPPTFGQGTKVEIERTVAAPSVFIFPPSDEQLKSGTASVVCLLNNFYPREAKVQWKVDNALQSGNSQESVTEQDSKDSTYSLSSTLTLSKADYEKHKVYACEVTHQGLSSPVTKSFNRGEC |
